Assays:
HOXD9 + PBX1 = HOXD9 + PBX1 (UniProt P28356;P40424 P28356:1-352,P40424:1-430); assay: EMSA; no retarded complex with PBX1; details: tags: pSG5-derived vectors, reticulocyte lysate; label: DIG
Experimental: (§1) PBX1 and HOX proteins used in this study were produced in vitro from the corresponding pSG5-derived expression vectors using a T7 polymerase-based coupled transcription-translation reticulocyte lysate system (Promega, Madison, Wis.). EMSA were performed according to the instruction of DIG gel shift kit (Roche). Briefly, 2 μl of double-stranded DIG-labeled oligonucleotides were incubated with 2 μl of in vitro-translated proteins in 20 μl of binding buffer (20 mM Hepes pH 7.6, 1 mM EDTA, 10 mM (NH₄)₂SO_{4, 1} mM DTT, 0.2%(w/v) Tween 20, 30 mM KCl in the presence of 1 μg of poly (dI-dC) and 0.1 μg of poly L-lysine) for 30 min at room temperature. Pre-binding reactions of unlabeled competitor oligonucleotides at ˜100-fold molar excess occurred for 15 minutes at room temperature. The incubation mixture was resolved by electrophoresis and served for chemiluminescent detection according to recommended conditions of DIG gel shift kit (Roche). DIG-labeled DNA probes used were generated by annealing complementary oligonucleotides:
(§2) Next, a representative subset of HOX proteins was tested for cooperative DNA binding with Pbx 1, to both the wild-type and a mutated 40 bp sequence derived from the 125 bp Hb9 enhancer (FIG. 6D). […] No binding was detected with PBX1 alone (lane 1), or with either of the HOX proteins alone. […]

HOXC8 + PBX1 = HOXC8 + PBX1 (UniProt P31273;P40424 P31273:1-242,P40424:1-430); assay: EMSA; no retarded complex with PBX1; details: tags: pSG5-derived vectors, reticulocyte lysate; label: DIG
Experimental: as §1, §2

HOXB3 + PBX1 = HOXB3 + PBX1 (UniProt P14651;P40424 P14651:1-431,P40424:1-430); assay: EMSA; cooperative complex; 20 mM Hepes pH 7.6, 30 mM KCl, poly(dI-dC), RT; details: tags: pSG5-derived vectors, reticulocyte lysate; label: DIG
Experimental: as §1, §2

HOXB1 = HOXB1 (UniProt P14653 P14653:1-301); assay: EMSA; HOX alone; details: tags: pSG5-derived vector, reticulocyte lysate; label: DIG
Experimental: as §1, §2

HOXB3 = HOXB3 (UniProt P14651 P14651:1-431); assay: EMSA; HOX alone; details: tags: pSG5-derived vector, reticulocyte lysate; label: DIG
Experimental: as §1, §2

PBX1 = molecular target: T1, PBX1 (UniProt P40424 P40424:1-430); assay: EMSA; PBX1 alone; details: tags: pSG5-derived vector, reticulocyte lysate; label: DIG
T1 sequence: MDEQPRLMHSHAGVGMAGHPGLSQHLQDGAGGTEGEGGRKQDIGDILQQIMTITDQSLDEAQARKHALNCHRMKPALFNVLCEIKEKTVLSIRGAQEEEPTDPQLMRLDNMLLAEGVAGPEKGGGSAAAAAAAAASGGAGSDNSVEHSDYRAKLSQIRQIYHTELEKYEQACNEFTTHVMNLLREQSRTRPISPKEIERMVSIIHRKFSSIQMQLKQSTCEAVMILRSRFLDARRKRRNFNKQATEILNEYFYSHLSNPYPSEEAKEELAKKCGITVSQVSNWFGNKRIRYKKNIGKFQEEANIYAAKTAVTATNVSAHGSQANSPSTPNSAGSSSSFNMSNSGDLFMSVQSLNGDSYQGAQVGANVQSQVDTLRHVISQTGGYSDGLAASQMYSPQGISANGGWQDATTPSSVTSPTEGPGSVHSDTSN
Experimental: as §1, §2

HOXB1 + PBX1 = HOXB1 + PBX1 (UniProt P14653;P40424 P14653:1-301,P40424:1-430); assay: EMSA; cooperative complex; abolished by anti-PBX1 antibody; 20 mM Hepes pH 7.6, 30 mM KCl, poly(dI-dC), RT; details: tags: pSG5-derived vectors, reticulocyte lysate; label: DIG
Experimental: as §1, §2

HOXC8 + PBX1, sequence (P31273 whole entry, one chain of several): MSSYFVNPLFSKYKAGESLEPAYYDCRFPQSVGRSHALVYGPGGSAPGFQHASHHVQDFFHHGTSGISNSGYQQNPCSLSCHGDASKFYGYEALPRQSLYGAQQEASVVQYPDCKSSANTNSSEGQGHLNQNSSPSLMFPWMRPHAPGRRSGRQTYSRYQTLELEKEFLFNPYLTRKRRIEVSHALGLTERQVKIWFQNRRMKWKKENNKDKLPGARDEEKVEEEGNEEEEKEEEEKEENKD
HOXB1, sequence (P14653 whole entry, one chain of several): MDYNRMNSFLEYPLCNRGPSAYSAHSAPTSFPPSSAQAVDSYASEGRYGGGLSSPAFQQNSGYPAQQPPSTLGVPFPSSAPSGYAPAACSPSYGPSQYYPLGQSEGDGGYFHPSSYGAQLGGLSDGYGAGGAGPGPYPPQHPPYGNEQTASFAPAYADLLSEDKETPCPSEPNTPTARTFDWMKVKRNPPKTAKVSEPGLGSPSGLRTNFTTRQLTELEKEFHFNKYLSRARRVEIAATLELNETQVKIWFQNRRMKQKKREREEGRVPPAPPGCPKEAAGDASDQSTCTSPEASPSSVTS
HOXB1 + PBX1, sequence (P14653 whole entry, one chain of several): as above
HOXD9 + PBX1, sequence (P28356 whole entry, one chain of several): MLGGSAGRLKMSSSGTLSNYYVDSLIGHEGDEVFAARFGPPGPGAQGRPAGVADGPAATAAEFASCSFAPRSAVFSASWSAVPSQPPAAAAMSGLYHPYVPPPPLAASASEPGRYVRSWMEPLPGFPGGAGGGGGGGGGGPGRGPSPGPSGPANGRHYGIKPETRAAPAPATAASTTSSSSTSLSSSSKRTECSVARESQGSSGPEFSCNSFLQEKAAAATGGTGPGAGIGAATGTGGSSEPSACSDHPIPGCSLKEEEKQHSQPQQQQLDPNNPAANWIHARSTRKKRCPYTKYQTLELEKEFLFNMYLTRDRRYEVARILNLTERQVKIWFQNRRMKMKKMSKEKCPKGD
HOXB3, sequence (P14651 whole entry, one chain of several): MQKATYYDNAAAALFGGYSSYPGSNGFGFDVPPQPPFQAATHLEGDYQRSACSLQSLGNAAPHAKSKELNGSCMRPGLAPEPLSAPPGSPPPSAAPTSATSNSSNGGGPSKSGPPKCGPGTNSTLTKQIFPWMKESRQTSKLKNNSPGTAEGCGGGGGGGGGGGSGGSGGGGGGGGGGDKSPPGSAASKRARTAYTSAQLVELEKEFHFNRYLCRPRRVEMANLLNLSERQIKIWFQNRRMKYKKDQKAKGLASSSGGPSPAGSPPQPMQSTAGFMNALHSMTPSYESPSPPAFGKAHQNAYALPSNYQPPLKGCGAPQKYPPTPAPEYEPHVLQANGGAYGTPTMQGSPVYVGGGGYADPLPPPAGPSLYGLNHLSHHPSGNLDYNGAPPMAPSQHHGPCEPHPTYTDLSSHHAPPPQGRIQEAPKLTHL
HOXB3 + PBX1, sequence (P14651 whole entry, one chain of several): as above

B1: Hb9 125 bp enhancer wild-type 40 bp probe (dsDNA)
DNA 1: GTACGTTAGCTGATGAATTGACAAAAACTAATCAGCTTTA
DNA 2: TAAAGCTGATTAGTTTTTGTCAATTCATCAGCTAACGTAC
- binding result (HOXD9 + PBX1): no binding
- binding result (HOXC8 + PBX1): no binding
- binding result (HOXB3 + PBX1): binds
- binding result (HOXB1): no binding
- binding result (HOXB3): no binding
- binding result (PBX1): no binding
- binding result (HOXB1 + PBX1): binds

Source: patent US20050129672, “Regulatory sequences that direct gene expression to spinal motor neurons and uses thereof” (published 2005)
